Measured values from patent publication US20200109196A1 (MOGAM INSTITUTE FOR BIOMEDICAL RESEARCH, published 2020).
Positions count from the first letter of the chain named.

T1: human CEACAM1 expressed on the cell surface (CEACAM1-Jurkat T cells); HEK293 cells transfected with human … (human, UniProt P13688 35-526)
T1 construct: whole, on cells; also called CCM1
T1 sequence (looked up): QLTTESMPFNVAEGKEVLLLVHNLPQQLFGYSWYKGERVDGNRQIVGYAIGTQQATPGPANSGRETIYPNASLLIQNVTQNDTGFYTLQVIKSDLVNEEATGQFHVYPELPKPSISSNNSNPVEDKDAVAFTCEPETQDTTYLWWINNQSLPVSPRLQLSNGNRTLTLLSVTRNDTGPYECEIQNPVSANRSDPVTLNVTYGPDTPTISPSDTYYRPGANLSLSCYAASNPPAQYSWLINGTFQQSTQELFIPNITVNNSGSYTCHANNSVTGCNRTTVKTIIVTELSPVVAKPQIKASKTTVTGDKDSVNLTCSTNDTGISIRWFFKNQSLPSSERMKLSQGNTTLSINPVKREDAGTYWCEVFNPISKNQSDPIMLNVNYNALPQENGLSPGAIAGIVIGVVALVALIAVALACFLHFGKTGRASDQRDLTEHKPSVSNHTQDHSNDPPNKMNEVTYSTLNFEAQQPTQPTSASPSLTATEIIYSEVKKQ

T2: recombinant human CEACAM-3/CD66d protein (Sino Biological; Cat. No. 11933-H08H) (human, UniProt P40198 35-155)
T2 construct: Bought protein; also called HCCM3
T2 sequence (looked up): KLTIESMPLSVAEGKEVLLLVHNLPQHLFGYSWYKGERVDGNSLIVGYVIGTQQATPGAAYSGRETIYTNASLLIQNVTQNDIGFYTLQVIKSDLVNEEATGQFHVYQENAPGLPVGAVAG

T3: recombinant human CEACAM-5/CD66e protein (R&D systems; Cat. No. 4128-CM) (human, UniProt P06731 35-685)
T3 construct: Bought protein; also called HCCM5
T3 sequence (looked up): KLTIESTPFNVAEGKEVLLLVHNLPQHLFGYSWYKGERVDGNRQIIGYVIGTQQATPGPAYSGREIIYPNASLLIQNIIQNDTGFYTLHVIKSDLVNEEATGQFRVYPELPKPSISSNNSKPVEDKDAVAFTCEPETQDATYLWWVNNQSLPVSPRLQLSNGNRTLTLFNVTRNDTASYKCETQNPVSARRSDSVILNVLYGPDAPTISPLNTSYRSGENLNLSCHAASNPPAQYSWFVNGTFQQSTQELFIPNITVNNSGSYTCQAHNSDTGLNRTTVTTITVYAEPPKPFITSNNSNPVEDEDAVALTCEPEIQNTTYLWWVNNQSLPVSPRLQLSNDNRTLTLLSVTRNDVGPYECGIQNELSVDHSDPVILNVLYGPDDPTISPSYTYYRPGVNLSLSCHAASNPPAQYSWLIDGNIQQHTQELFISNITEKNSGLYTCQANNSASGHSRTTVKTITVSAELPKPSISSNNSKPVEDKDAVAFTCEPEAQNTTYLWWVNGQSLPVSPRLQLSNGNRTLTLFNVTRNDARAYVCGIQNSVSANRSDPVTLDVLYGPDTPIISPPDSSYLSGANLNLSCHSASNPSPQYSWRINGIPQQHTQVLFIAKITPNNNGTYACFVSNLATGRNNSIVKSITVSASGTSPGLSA

B1: 4R9 (antibody, human IgG4 S228P, lambda, V domains shown)
VH: EVQLLESGGGLVQPGGSLRLSCAASGFTFSNYAMSWVRQAPGKGLEWVSVISHGGGSIYYADSVKGRLTISRDNSKNTLYLQMNSLRAEDTAVYYCARDPTKGYAPTFDYWGQGTLVTVSS
VL: QSVLTQPPSASGTPGQRVTISCSGSSSNIGNNYVSWYQQLPGTAPKLLIYADSRRPSGVPDRFSGSKSGTSASLAISGLRSEDEADYYCGAWDLSLNGYVFGGGTKLTVLG
notes: also called C25-derived clone 4R9
B2: 4R26 (antibody, human IgG4 S228P, lambda, V domains shown)
VH: B1 VH
VL: B1 VL with R54K, P56L, L94G, S95R
notes: also called C25-derived clone 4R26
B3: 4R9_H2-2 (antibody, human IgG4 S228P, lambda, V domains shown)
VH: B1 VH with T107L
VL: B1 VL
notes: also called C25-derived clone 4R9_H2-2
B4: C26 (antibody, human IgG4 S228P, lambda, V domains shown)
VH: EVQLLESGGGLVQPGGSLRLSCAASGFTFSGYDMSWVRQAPGKGLEWVSWISYGGGSIYYADSVKGRFTISRDNSKNTLYLQMNSLRAEDTAVYYCAKDRLPQKAVRHSYANGMDVWGQGTLVTVSS
VL: B1 VL with S35T, R54H, L94Y, N97S
B5: C25 (antibody, human IgG4 S228P, lambda, V domains shown)
VH: B1 VH
VL: B1 VL with R54K, L94A
notes: Made in ExpiHEK293F cells, protein A purified. huIgG4 is the isotype control and anti-huIgG4 the detection reagent; the isotype is not otherwise stated; also called anti-CEACAM1 antibody C25
B6: C19 (antibody, human IgG4 S228P, lambda, V domains shown)
VH: EVQLLESGGGLVQPGGSLRLSCAASGFTFSGYAMSWVRQAPGKGLEWVSGIYHDGGSTYYADSVKGRFTISRDNSKNTLYLQMNSLRAEDTAVYYCARVTVLCTTYGCSSYDGMDVWGQGTLVTVSS
VL: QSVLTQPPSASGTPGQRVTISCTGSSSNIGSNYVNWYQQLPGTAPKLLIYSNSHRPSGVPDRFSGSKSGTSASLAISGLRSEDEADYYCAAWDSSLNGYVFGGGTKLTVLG
B7: C18 (antibody, human IgG4 S228P, lambda, V domains shown)
VH: EVQLLESGGGLVQPGGSLRLSCAASGFTFSNYDMSWVRQAPGKGLEWVSGISHSSGSKYYADSVKGRFTISRDNSKNTLYLQMNSLRAEDTAVYYCARDPLPCLIPKCSYYYAMDVWGQGTLVTVSS
VL: B1 VL with S11P, N31S, Y33A, S35T, R54H, A91S, L94D, G98A
B8: C15 (antibody, human IgG4 S228P, lambda, V domains shown)
VH: EVQLLESGGGLVQPGGSLRLSCAASGFTFSSYSMSWVRQAPGKGLEWVSSISPNGGNKYYADSVKGRFTISRDNSKNTLYLQMNSLGAEDTAVYYCAKDPYNIYQPLFDYWGQGTLVTVSS
VL: B1 VL with P8L, S35N, D52N, R54N, D83E, A91T, L94A, N97S, G98A

target: T1, human CEACAM1 expressed on the cell …; test: flow cytometry on CEACAM1-Jurkat T cells, antibody at 0.2 µg/ml
Method: The CEACAM1-Jurkat T cells prepared above were treated with Fc block solution and incubated for 15 minutes. […] Herein, it is noted that the cell numbers were adjusted to 1×10⁵. The cells incubated with the antibodies were repeatedly subjected to the washing procedure of resuspending the cells in a FACS buffer and centrifuging the solution at 1,500 rpm.
PE-conjugated goat anti-human F(ab)₂; (Sigma; Cat. No. P8047)) was diluted in the FACS buffer at a volume ratio of 1:200, and then added to the cells at 100 μl/well. Cells were resuspended well and incubated at 4° C. for 30 minutes in a dark condition.
The cells incubated with the fixation buffer were repeatedly subjected to the washing procedure of resuspending the cells in a FACS buffer, centrifuging the solution at 1,500 rpm, and discarding the supernatant. The washed cells were resuspended in 200 μl of a FACS buffer, and the mean fluorescence intensities (MFIs) of the PE-labeled cells were monitored by a FACS LSR-Fortessa. All FACS analyses were conducted using the FlowJo software.

percent of maximal binding level	Binder
80%	B1
80%	B2
80%	B3

target: T2, recombinant human CEACAM-3/CD66d …; test: ELISA on coated antigen (0.25 µg/ml), HRP anti-human IgG Fab, OD450
Description: (§1) All of the recombinant human CEACAM-1/CD66a protein (R&D systems; Cat. No. 2244-CM, HCCM1), recombinant human CEACAM-5/CD66e protein (R&D systems; Cat. No. 4128-CM, HCCM5), recombinant human CEACAM-6/CD66c protein (R&D systems; Cat. No. 3934-CM, HCCM6), recombinant human CEACAM-3/CD66d protein (Sino Biological; Cat. No. 11933-H08H, HCCM3), recombinant mouse PD-1 Fc chimeric protein (R&D systems; Cat. No. 1021-PD, mPD-1-Fc), recombinant CEACAM1-Fc (IgG4) protein (Mogam, in-house production, HCCM1-Fc), recombinant human CEACAM-1/CD66a protein Bulk (R&D systems; Cat. No. 2244-CM, HCCM1 (bulk)) and mouse CEACAM1/CD66a protein (Sino Biological; Cat. No. 50571-M08H, mouse CCM1) (2.5 μg each) were dissolved in 10 ml of PBS, respectively and dispensed into a 96-well plate (Nunc; Cat. No. 467679) at 100 μl/well, which was incubated overnight at 4° C. Thereafter, each well was treated with 300 μl of 1% (v/v) bovine serum albumin, which was incubated at 37° C. for 1 hour.
(§2) The diluted antibodies were dispensed into each well coated with each protein at 100 μl/well, which was incubated at 37° C. for 1 hour. Then, each well was washed 3 times with a washing buffer prepared by diluting 10 μl of Tween 20 (Sigma-Aldrich; Cat. No. P9146) in 990 μl of PBS. Thereafter, 2 μl of HRP-conjugated human anti-IgG-Fab antibody (anti-human IgG Fab; Sigma; Cat. No. A0293) was diluted in 10 ml of PBS, added to the wells at 100 μl/well, and incubated for 1 hour.
(§3) After completion of the reaction, the wells were washed three times with the washing buffer, and 100 μl of TMB solution was added to each well to induce color development. Then, 100 μl of 2 M H₂SO₄ was added to each well to stop the reaction, and the absorbance was measured at a wavelength of 450 nm.

Binder	binding result
B4	no binding (tested: 3 µg/ml (single concentration))
B5	no binding (tested: 3 µg/ml (single concentration))
B6	no binding (tested: 3 µg/ml (single concentration))

target: T3, recombinant human CEACAM-5/CD66e …; test: as above
Description: as §1, §2, §3

Binder	binding result
B7	no binding (tested: 3 µg/ml (single concentration))
B4	no binding (tested: 3 µg/ml (single concentration))
B5	no binding (tested: 3 µg/ml (single concentration))
B8	no binding (tested: 3 µg/ml (single concentration))
